Columns and labels:
[1] = biological target: T1, recombinant human PVRIG-human IgG1 Fc fusion protein (human); assay: SPR (Biacore), human PVRIG-human IgG1 Fc on chip, antibody in flow, 1:1 model
T1 construct: no linker is told; also called human PVRIG-Fc fusion protein
Method: The binding kinetics and dissociation equilibrium constant (KD) of the antibodies of the present disclosure to human PVRIG were determined using the surface plasmon resonance (Biacore) assay. Briefly, a CMS chip was coated with human PVRIG-human IgG1 Fc fusion protein, and after being blocked, antibody solutions of different concentrations passed through the CMS chip at a fixed flow rate and bound to antigen for 2 min, followed by transfer to dissociation buffer for 6 min for determination of the dissociation rate. The kinetics were analyzed using a 1:1 binding model.
Target sequence in this assay (chain, as listed by the source limits assumed): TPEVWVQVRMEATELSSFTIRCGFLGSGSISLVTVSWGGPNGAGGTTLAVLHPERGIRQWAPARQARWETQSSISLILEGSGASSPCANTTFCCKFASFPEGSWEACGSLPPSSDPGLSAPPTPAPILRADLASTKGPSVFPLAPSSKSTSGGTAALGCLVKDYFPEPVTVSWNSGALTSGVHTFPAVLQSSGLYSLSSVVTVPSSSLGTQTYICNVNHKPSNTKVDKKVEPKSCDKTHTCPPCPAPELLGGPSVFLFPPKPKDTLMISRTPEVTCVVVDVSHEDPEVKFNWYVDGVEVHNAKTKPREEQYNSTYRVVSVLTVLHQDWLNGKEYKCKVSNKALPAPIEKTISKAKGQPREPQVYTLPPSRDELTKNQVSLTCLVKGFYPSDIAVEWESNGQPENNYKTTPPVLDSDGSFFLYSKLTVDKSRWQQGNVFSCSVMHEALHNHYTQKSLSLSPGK

[2] = biological target: T2, human PVRIG protein on the cell membrane surface (human, UniProt Q6DKI7 41-326); assay: flow cytometry on 293T-human PVRIG cells, AF647 goat anti-mouse IgG, percent positive cells
T2 construct: Also used here for the natural PVRIG on NKG cells and human lymphocytes; also called 293T-human PVRIG cell line; PVRIG on NKG cell line
T2 sequence: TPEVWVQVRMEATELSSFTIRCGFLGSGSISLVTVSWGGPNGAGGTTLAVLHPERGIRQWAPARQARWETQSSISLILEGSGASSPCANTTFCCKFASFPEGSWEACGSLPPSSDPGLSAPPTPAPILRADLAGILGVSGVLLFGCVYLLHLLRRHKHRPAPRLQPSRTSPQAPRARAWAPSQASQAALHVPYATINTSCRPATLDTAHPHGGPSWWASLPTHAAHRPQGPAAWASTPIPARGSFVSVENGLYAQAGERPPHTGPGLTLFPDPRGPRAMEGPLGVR
Method: The activity of murine antibodies from different clones in binding to human PVRIG protein on the cell membrane surface was evaluated by flow cytometry. The experimental procedure was as follows:
The 293T-human PVRIG cell line was harvested, washed with 1×PBS and resuspended, the cells were counted. Then […] were placed into each 1.5 ml Ep tube, the respective murine antibody (Antibody 1, Antibody 2, Antibody 3, or Antibody 4) was added at different concentrations, the mixture was incubated at 4° C. for 30 min, then washed with 1×PBS, and centrifuged at 3,500 rpm for 5 min to harvest the cells. The cell pellet was resuspended in 100 μl of 1×PBS, a AF647-labeled goat anti-mouse IgG antibody (available from Biolegend) was added, the mixture was incubated at 4° C. for 30 min in the dark, followed by washing twice with 1×PBS and harvesting the cells by centrifugation at 3,500 rpm for 5 min. The cell pellet was resuspended with 200 μl of 1×PBS and measured using a flow cytometer (BD LSR II).

[3] = biological target: T1, recombinant human PVRIG-human IgG1 Fc …; assay: ELISA, plate coated with human PVRIG-human IgG1 Fc at 1.0 µg/ml, HRP goat anti-mouse IgG, OD450
Method: The activity of the murine antibodies from different clones in binding to the human PVRIG-Fc fusion protein was evaluated by ELISA. The experimental procedure was as follows:
The recombinant human PVRIG-human IgG1 Fc fusion protein was diluted to 1.0 μg/ml in 1×PBS (phosphate buffer), the dilution was plated onto a 96-well ELISA plate overnight at 4° C. by 100 μl/well, the plate was washed 3 times with PBST (0.05% Tween20-PBS) and blocked with 1% BSA, followed by incubation at 37° C. for 2 h. The plate was washed 3 times with PBST, and murine antibodies (Antibody 1, Antibody 2, Antibody 3, or Antibody 4) diluted in multiple ratios were respectively added to set 8 concentrations, and the mixture was incubated at 37° C. for 1 h using mouse IgG1 (available from Biolegend) as a negative control at 100 μl/well. The plate was washed 3 times with PBST, and 100 μl of horseradish peroxidase (HRP)-labeled goat anti-mouse IgG antibody (available from BOSTER, 1:10,000 dilution) was added to each well, and the mixture was incubated at 37° C. for 1 h. After washing, 100 μl of TMB substrate solution was added to each well for developing for 10 to 15 min in the dark, 100 μl of stop solution (2M H2SO4) was added to each well, the solution was measured with a microplate reader immediately after the reaction stopped, and the absorbance at 450 nm (OD450) was read.

[4] = biological target: T3, recombinant Macaca fascicularis PVRIG-human IgG1 Fc fusion protein (Macaca fascicularis; human); assay: ELISA, plate coated with Macaca fascicularis PVRIG-human IgG1 Fc at 1.0 µg/ml, HRP goat anti-mouse IgG, OD450
T3 construct: Prepared 'in a similar manner' to the human PVRIG fusion
T3 sequence (chain, as listed by the source limits assumed): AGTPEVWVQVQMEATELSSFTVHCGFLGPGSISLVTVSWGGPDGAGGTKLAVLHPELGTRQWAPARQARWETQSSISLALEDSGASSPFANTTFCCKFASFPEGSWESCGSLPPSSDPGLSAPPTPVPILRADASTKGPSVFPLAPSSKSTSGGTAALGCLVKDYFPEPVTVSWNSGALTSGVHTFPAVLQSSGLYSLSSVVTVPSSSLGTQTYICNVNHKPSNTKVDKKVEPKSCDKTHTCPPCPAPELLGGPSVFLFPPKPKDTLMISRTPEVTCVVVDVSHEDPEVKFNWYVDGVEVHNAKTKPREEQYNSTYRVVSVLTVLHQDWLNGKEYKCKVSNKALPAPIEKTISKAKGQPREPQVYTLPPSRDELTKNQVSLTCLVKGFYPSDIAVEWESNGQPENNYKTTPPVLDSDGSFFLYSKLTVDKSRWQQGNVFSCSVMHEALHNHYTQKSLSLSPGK
Method: The activity of the murine antibody in binding to the Macaca fascicularis PVRIG was evaluated by an ELISA method. The experimental procedure was as follows:
The recombinant Macaca fascicularis PVRIG-human IgG1 Fc fusion protein was diluted to 1.0 μg/ml in 1×PBS (phosphate buffer), the dilution was placed in a 96-well ELISA plate overnight at 4° C. by 100 μl/well, the plate was washed 3 times with PBST (0.05% Tween20-PBS) and blocked with 1% BSA, and the mixture was incubated for 2 h at 37° C. The plate was washed 3 times with PBST, and the murine antibody (Antibody 4) diluted in multiple ratios were respectively added to set 11 concentrations, and the mixture was incubated at 37° C. for 1 h using mouse IgG1 as a negative control at 100 μl/well. The plate was washed 3 times with PBST, 100 μl of horseradish peroxidase (HRP)-labeled goat anti-mouse IgG antibody (available from BOSTER, 1:10,000 dilution) was added to each well, and the mixture was incubated at 37° C. for 1 h. After washing, 100 μl of TMB substrate solution was added to each well for developing for 10 to 15 min in the dark, 100 μl of stop solution (2M H2SO4) was added to each well, the solution was measured with a microplate reader immediately after the reaction stopped, and the absorbance at 450 nm (OD450) was read. […]

[5] = biological target: T1, recombinant human PVRIG-human IgG1 Fc …; assay: flow cytometry blocking assay: antibody plus 10 µg/ml Fc fusion protein on 293T-human CD112 cells, AF647 anti-human IgG-Fc; y axis Human PVRIG-Fc fusion protein binding (%); blocked ligand: human CD112 on the cells
Method: The activity of murine antibodies from different clones in blocking the binding of the human PVRIG to its ligand CD112 was evaluated by flow cytometry. The experimental procedure was as follows:
The 293T-human CD112 cell line was harvested, and washed resuspended with 1×PBS to count the cells. […] The cell pellet was resuspended in 100 μl of 1×PBS, a AF647-labeled mouse anti-human IgG-Fc antibody (available from Biolegend) was added, the mixture was incubated at 4° C. for 30 min in the dark, followed by washing twice with 1×PBS and harvesting the cells by centrifugation at 3,500 rpm for 5 min. The cell pellet was resuspended with 200 ul of 1×PBS and measured using a flow cytometer (BD LSR II).

B1: Antibody 4 (antibody, V domains shown)
VH: QVQLQQSGAELVKPGASVKISCKATGYTFSSFSIEWVKQRPGHGLAWIGEILPGSNSTNYNEKFKGKATFTADTSSNTAYMQLSSLTSEDSAVYYCSSYWFAYWGQGTLVTVSA
VL: DIVMTQSPSSLSVSAGEKVTMSCKSSQSLLNSGNQKNYLAWYQQKPGQPPKLLIYGASTRESGVPDRFTGSGSGTDFTLTISSVQAEDLAVYYCQNAHSYPPTFAAGTKLELK
notes: Murine monoclonal antibody from hybridoma ascites; Used AF647-labelled in several flow cytometry assays; also called murine antibody (Antibody 4); murine Antibody 4
In the case of B1, the Kd [1] is reported as ≤ 4.1 pM, the koff [1] is reported as ≤ 1e-06 s⁻¹ and the kon [1] is reported as 244000 M⁻¹ s⁻¹. For the same binder, the “EC50 (read off the curve)” value [2] was ~0.01 µg/mL, the “EC50 (read off the curve)” value [3] was ~0.02 µg/mL and the “EC50 (read off the curve)” value [4] was ~0.04 µg/mL. The “IC50 (read off the curve)” value [5] was ~3 µg/mL.
